# Measurements from US20100068806A1, “NOVEL METHODS AND REAGENTS DIRECTED TO PRODUCTION OF CELLS” (SUOMEN PUNAINEN RISTI, VERIPALVELU, priority 2007, published 2010).
# Entries after “also recorded” stand apart in the source; their conditions may differ.
# Tests used:
# hESC [1] = assay: Fluorescein-labelled lectin staining of hESC colonies on mouse feeder layers; format: binding, human; set-up: key to lectin ligand profile, hESC: + present in cell surface; − not present in cell surface; details: for inhibition of lectin binding to hESC by carbohydrate: MAA or PSA binding
# Description: (§1) Lectin staining. Fluorescein-labeled lectins were from EY Laboratories (USA) and the stainings were performed essentially after manufacturer's instructions. The specificity of the staining was controlled in parallel experiments by inhibiting lectin binding with specific oligo- and monosaccharides.
# (§2) From a practical perspective stem cell research would be best served by the identification of target structures on cell surface. To investigate whether individual glycan structures we had identified would be accessible to reagents targeting them at the cell surface we performed lectin labelling of two candidate structure types. Lectins are proteins that recognize glycans with specificity to certain glycan structures also in hESC (Venable et al., 2005). To study the localization of glycan components in hESC, stem cell colonies grown on mouse feeder cell layers were labeled in vitro by fluorescein-labelled lectins (FIG. 2). […] Such glycans would thus be available for recognition by more specific glycan-recognizing reagents such as antibodies. In contrast, the cell surfaces were not labelled by Pisum sativum agglutinin (PSA) that recognizes α-mannosylated glycans (FIG. 2b).
# The glycome profile data was used to design glycan-specific labeling reagents for hESC. The most interesting glycan types were chosen to study their expression profiles by lectin histochemistry as exemplified in FIG. 5 for the lectins that recognize either α2,3-sialylated (MAA-lectin, FIG. 5A.) binding to the hESC cells or α-mannosylated glycans (PSA-lectin, FIG. 5B.) binding to the surfaces of feeder cells (MEF). The binding of the lectin reagents was inhibited by specific carbohydrate inhibitors, sialylα2-lactose and mannose, respectively (FIG. 5C. and 5D.).
# [2] = tested on: hESC lines FES29 and FES30; assay: hESC culture on lectin-coated plates in mEF-conditioned media; format: cell-based, human; set-up: key to Growth: +++: cells attach and can grow; cells attach and can grow but less cells/slower growth than +++; +: only few cells attach, one split; −: no cells after p1, cannot be splitted; #: less cells attach and slower early growth; details: for Growth: culture experiment in mEF-conditioned media; for growth of hESC on coated plates: mEF-conditioned media
# Description: FES 30 hESC line was used. hESCs were transferred from mEF to Matrigel™ and cultured according to the protocol found on the Geron Corporation website at: http://www.geron.com/showpage.asp?code=prodstprot
# All passages were done using collagenase. The passages were also done using PBS without collagenase treatment.
# The cells were transferred to ECA-coated 12-well plates (Corning) and cultured in mEF-conditioned media for 5-11 days, whereafter they were divided 1:2 or 3:4. RNA samples were extracted from a cell sample every second or third passage and analyzed for expression of stem cell and differentiation markers (FIG. 31).
# The ECA (EY Laboratories, USA; L-5901-5) coating was performed as follows for 12 well plates. ECA lectin was stored frozen as stock solution of 1 mg/ml. It was thawed on ice and diluted as 100 μl lectin stock+600 μl PBS, sterile filtered (Millex-GV, SLGV 013 SL, 0.22 μm) in laminar hood. This solution, i.e. 100 μg/700 μl PBS solution was applied to each well and incubated overnight at +4 C. On the following day lectin solution was removed and wells were washed with 3×1 ml of sterile PBS.
# (§3) hESC were cultured at least two passages feeder-free on Matrigel (BD Biosciences, Bedford, Mass., USA) before plating on lectin. Matrigel-culturing was continued side by side lectin-culturing as comparison. Cells were cultured during the whole experiment in standard Knockout™ DMEM media with 20% Knockout™ Serum Replacement and 8 ng/ml of recombinant basicFGF (all from Gibco/Invitrogen, Paisley, UK; Mikkola M. et al. BMC Dev. Biol. 6:40, 2006) conditioned on mouse feeder cells for 24 h. Cells were detached with collagenase IV while splitting.
# (§4) Lectins were diluted in PBS and sterile filtered before applying on Nunclon cell culture plates (Nunc, Roskilde, Denmark). The amount of lectin was 27 μg/cm^2 and plates were incubated over night at +4° C. Before splitting cells on lectin wells were washed three times with PBS.
# [3] = tested on: SSEA-4 enriched human embryonic stem cells (hESC); details: Venable et al. 2005; cited from earlier work
# hESC [4] = assay: Short (5 days) hESC culture on ECA types and conjugates; format: cell-based, human; set-up: key: +++: many cells attached on day 5; ++: scattered cells on day 5; +: few cells left on day 5; −: no attached cells after day 5; details: day 5
# hESC (FES29) = assay: FACS of Tra-1-60 and SSEA-3 in hESC cultured on lectins or Matrigel; format: cell-based, human
# Description: as §3, §4
# RUNX2 = assay: Quantitative RT-PCR of RUNX2 in MSC grown on lectins; format: cell-based, human
# Description: (§5) Total cellular RNA from the BM derived mesenchymal stem cells grown for five passages on selected lectins was extracted by using RNeasy miniprep-kit (Qiagen, Chatsworth, Calif.) according to the manufacturers's instructions. RNA was then reverse transcribed to cDNA with High Capacity cDNA Reverse Transcription reagents according to manufacturers instructions (Applied Biosystems) and used as a template in TaqMan® PCR reaction. TaqMan® PCR reaction was used to estimate the quantitative levels of stem cell differentiation markers. TaqMan® PCR reaction performed in standard conditions using TaqMan® Universal Gene Expression Master Mix (Applied Biosystems) and Pre-developed Inventored Gene Expression Assays for FABP4 (Hs00609791_m1) and RUNX2 (Hs00231692_m1) (Applied Biosystems).
# (§6) Real time quantitative PCR reactions were performed with the ABI PRISM 7000 Sequence Detector System (Applied Biosystem) in standard conditions. PCR amplifications were performed in a total volume of 50 μl, containing 1 μl cDNA sample. TaqMan® Universal Gene Expression Master Mix (Applied Biosystems) was used in all experiments. Pre-developed Inventored Gene Expression Assays for FABP4 (Hs00609791_m1) and RUNX2 (Hs00231692_m1) (Applied Biosystems) were used to estimate the quantitative levels of stem cell differentiation markers. Pre-developed TaqMan® assay reagents for endogenous control human TATA-box binding gene labeled with VIC reporter dye (Hs 999999_m19) was used for amplification of control gene.
# (§7) PCR was started with 2 min at 50° C. and the initial 10 min denaturing temperature was 94° C., followed by a total of 40 cycles of 15 s of denaturing and 1 min of annealing and elongation at 60° C.
# FABP4 = assay: Quantitative RT-PCR of FABP4 in MSC grown on lectins; format: cell-based, human
# Description: as §5, §6, §7
# [5] = tested on: Human Bone marrow-derived mesenchymal stem cells (MSC); assay: Flow cytometry of CD105, CD45, CD73, HLA-DR in MSC grown on lectins; format: cell-based; details: MSC grown on lectin
# Description: Briefly, bone marrow obtained during orthopedic surgery was cultured in Minimum Essential Alpha-Medium (α-MEM), supplemented with 20 mM HEPES, 10% FCS, 1× penicillin-streptomycin and 2 mM L-glutamine (all from Gibco). After a cell attachment period of 2 days the cells were washed with Ca2+ and Mg2+ free PBS (Gibco), and subcultured at a density of 2000-3000 cells/cm2 in the same media on 24-well chamber slides coated with lectin molecules. Cells were crown at 37° C. with 5% CO2, fresh media was changed twice a week until near confluence. MSCs were cultured on lectin coated well plates for five passages. MSC passages 5-10 were used in the experiment.
# Proliferating MSCs in passage 5 were grown on different lectins for 5 days. Cells were washed with PBS and harvested into single cell suspensions by Versene solution. Detached cells were centrifuged at 600×g for five minutes at room temperature. Cell pellet was washed twice with 0.3% BSA-PBS, centrifuged at 600×g and resuspended in 0.3% BSA-PBS. Cells were placed in conical tubes in aliquots of 50 000 cells each. Cell aliquots were incubated with antibodies in dilution of 2 μl/10^5 cells for 30 minutes at +4° C. in the dark. After incubation cells were washed with 0.3% BSA-PBS, centrifuged and resuspended in 0.3% BSA-PBS.
# Unlabeled cells and cells grown on plastic were used as controls. Antibody binding was detected by flow cytometry (FACSAria, Becton Dickinson). Data analysis was made with FACSDiva™ Flow Cytometry Software Version 5.02.
# mouse feeder cells (MEF) = assay: Fluorescein-labelled lectin staining of mouse feeder cells in hESC culture; format: binding; set-up: key: + present in cell surface; − not present in cell surface; details: MEF cell surface
# Description: as §1, §2
# The glycome profile data was used to design glycan-specific labeling reagents for hESC. […]
# mouse feeder cell (mEF) = assay: FITC-lectin and antibody labelling of mouse feeder cells, fluorescence microscopy; format: binding; details: fixed cells
# [6] = tested on: bone marrow derived mesenchymal stem cells (BM MSC); assay: FITC-lectin staining of fixed BM MSC, fluorescence microscopy; format: binding, human
# [7] = tested on: cord blood mononuclear cell (CB MNC); assay: FACS analysis of FITC-lectin binding to cord blood mononuclear cells; set-up: species or system human; details: seven CB MNC preparations
# [8] = tested on: human embryonic stem cell (hESC) lines FES 22 and FES 30; assay: FITC-lectin and antibody labelling of hESC, fluorescence microscopy; format: binding
# [9] = start point (UEA-1/DSA/Galectin 1 experiment)
# [10] = MSC grown five passages on lectin
molecule,measurement,setting,value
CC(=O)N[C@H]1[C@H]([C@H](O)[C@H](O)CO)O[C@@](O[C@H]2[C@@H](O)[C@@H](CO)O[C@@H](O[C@H]3[C@H](O)[C@@H](O)C(O)O[C@@H]3CO)[C@@H]2O)(C(=O)O)C[C@@H]1O (some centres unmarked) [3′-sialyllactose],inhibition of lectin binding to hESC by carbohydrate,hESC [1],blocks MAA binding
same,inhibition of lectin binding to hESC by carbohydrate,hESC [1]; listed as α3′-sialyllactose,inhibited
O=C[C@@H](O)[C@@H](O)[C@H](O)[C@H](O)CO [D-mannose],inhibition of lectin binding to hESC by carbohydrate,hESC [1],inhibited; also recorded: blocks PSA binding
"Galectin-1 in solution: Galectin-1 added in solution, not immobilized",Growth,[2],−
same,growth of hESC on coated plates,[2],could not support the cell growth
PHA-E: Phaseolus vulgaris lectin recognizing N-glycan core epitope (bisecting GlcNAc),lectin binding to SSEA-4 enriched hESC,[3],partially bind to hESC
same,Growth,[2],+++#
same,growth of hESC on coated plates,[2],weak
PHA-L: Phaseolus vulgaris lectin,lectin binding to SSEA-4 enriched hESC,[3],partially bind to hESC
"rGal-1: rGal-1, presumably recombinant galectin-1, coating in short hESC culture",short (5 days) culting,hESC [4],−
"Galectin-1: bovine Galectin-1, N-acetyllactosamine binding lectin (protein, UniProt P11116 2-135, looked up) Galectin-1: ACGLVASNLNLKPGECLRVRGEVAADAKSFLLNLGKDDNNLCLHFNPRFNAHGDVNTIVCNSKDAGAWGAEQRESAFPFQPGSVVEVCISFNQTDLTIKLPDGYEFKFPNRLNLEAINYLSAGGDFKIKCVAFE",expression of SSEA-3,"hESC (FES29); FES29, after 7 passages",32.3%
same,expression of Tra-1-60,"hESC (FES29); FES29, after 7 passages",21.6%
same,SSEA-3,hESC (FES29); p7,32.3
same,Tra-1-60,hESC (FES29); p7,21.6
same,SSEA-3,hESC (FES29); [9],89.2
same,Tra-1-60,hESC (FES29); [9],69.6
same,RUNX- Endogenous control gene avarage Δct,RUNX2; [10],2.76
same,Expression relative to plastic 2e − ΔΔCt,RUNX2; RUNX,0.31
same,ΔCt − Δctplastic relative ΔΔCt,"RUNX2; RUNX, relative to plastic",1.87
same,Expression relative to plastic 2e − ΔΔCt,FABP4; FABP,12.85
same,ΔCt − Δctplastic relative ΔΔCt,"FABP4; FABP, relative to plastic",−1.86
same,FABP - Endogenous control gene avarage Δct,FABP4; [10],5.24
same,CD 45,[5],neg
same,CD73,[5],pos
same,CD105,[5],pos
same,HLA-DR,[5],23.8%
same,passages hESC cultured on lectin,[2]; FES29,7 passages
same,Growth,[2],+++
same,growth of hESC on coated plates,[2],also effective
"PNA: peanut lectin, Gal/GalNAc structures (protein, UniProt P02872 24-273, looked up) Galactose-binding lectin: AETVSFNFNSFSEGNPAINFQGDVTVLSNGNIQLTNLNKVNSVGRVLYAMPVRIWSSATGNVASFLTSFSFEMKDIKDYDPADGIIFFIAPEDTQIPAGSIGGGTLGVSDTKGAGHFVGVEFDTYSNSEYNDPPTDHVGIDVNSVDSVKTVPWNSVSGAVVKVTVIYDSSTKTLSVAVTNDNGDITTIAQVVDLKAKLPERVKFGFSASGSLGGRQIHLIRSWSFTSTLITTTRRSIDNNEKKIMNMASA","lectin ligand profile, MEF",mouse feeder cells (MEF),−
same,labelling of mEF,mouse feeder cell (mEF),absence of specific binding
same,"lectin ligand profile, hESC",hESC [1]; hESC cell surface,+
same,lectin binding / labelling of BM MSC,"[6]; FITC-labelled lectin, cell surface of cultured BM MSC",less intense labelling
same,effect of sialidase treatment of the cells on lectin binding,[6]; sialidase treatment before lectin binding,also increased by sialidase treatment
same,lectin binding to CB MNC,[7],variable binding between CB samples
same,lectin binding to SSEA-4 enriched hESC,[3],high binding percentage
same,labelling of hESC,[8]; fixed cells on mouse feeder layer,Abundant labelling
same,"specific binding, hESC versus mEF",[8]; hESC compared with mEF,bound specifically to hESC but not to mEF
